According to article PMC12324117:

Target: LRRC4B (453–576) protein (UniProt Q9NT99)
Assay: ELISA; plates coated with LRRC4B (453–576) protein at 1 µg/ml in 50 mM carbonate buffer pH 9.6; FAM19A5 added; detected with HRP-conjugated C-A5-Ab; OD 450 nm (format as told for the CSF ELISA); n = 10 each

Chain of UniProt Q9NT99 (Q9NT99 453-576): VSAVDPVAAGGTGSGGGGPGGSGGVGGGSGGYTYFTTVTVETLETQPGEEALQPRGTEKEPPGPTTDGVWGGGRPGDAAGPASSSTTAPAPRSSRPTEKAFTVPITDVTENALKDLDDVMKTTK

EC50 [nM] | Substance
2.56 | MT FAM19A5 protein (ELISA) (natural protein)
0.199 | WT FAM19A5 protein (ELISA) (natural protein)
